Data from article PMC9772378.

What was measured:
[1] = target: Singapore16 N2 NA (head domain, residues 82-469) with VASP tetramerization domain (influenza A virus A/Singapore/INFIMH-16-0019/2016 (H3N2)); assay: negative-stain electron microscopy
[2] = target: Singapore16 N2 NA (head domain, residues 82-469) without VASP tetramerization domain (influenza A virus A/Singapore/INFIMH-16-0019/2016 (H3N2)); assay: negative-stain electron microscopy

Singapore16 N2 NA (head domain, residues 82-469) with VASP tetramerization domain (domain or fragment)
stoichiometry N [1]: 4

Singapore16 N2 NA (head domain, residues 82-469) without VASP tetramerization domain (domain or fragment)
stoichiometry N [2]: 4
